Test results published in US20240327505A1.

Columns and labels:
[1] = biological target: SARS-CoV-1 spike protein on pseudovirus (SARS-CoV-1) (UniProt P59594); test: cell-based or functional assay
[2] = biological target: SARS-CoV-2 Wuhan-1 full-length Spike protein on pseudovirus (SARS-CoV-2) (UniProt P0DTC2); test: cell-based or functional assay
[3] = biological target: SARS-CoV-2 spike receptor-binding domain (RBD) (SARS-CoV-2) (UniProt P0DTC2)
[4] = biological target: SARS-CoV-2 spike S1 protein (SARS-CoV-2) (UniProt P0DTC2)
[5] = biological target: SARS-CoV-2 spike protein on fully infectious (replication-competent) SARS-CoV-2 virus (SARS-CoV-2) (UniProt P0DTC2); test: cell-based or functional assay
[6] = biological target: SARS-CoV-2 Spike (S) trimer (SARS-CoV-2) (UniProt P0DTC2); test: ELISA on coated S trimer, 1:50
[7] = biological target: SARS-CoV-2 Spike (S) trimer (SARS-CoV-2) (UniProt P0DTC2); test: SPR binning (Carterra LSA), antibody amine-coupled to the chip as ligand

“Anti-Nucleocapsid (Neg Control) (antibody)” was tested. Which Pseudovirus Neturalization [1] did it give?
The Pseudovirus Neturalization was greater than 50 µg/mL.

What about the Pseudovirus Neturalization [2] of the same substance?
Its Pseudovirus Neturalization is greater than 50 µg/mL.

What does the source list for CA-1 (AB-009265) (antibody)?
Kd [3]: 5.72 nM; Response [3]: 0.53 nm; koff [3]: 0.000681 s⁻¹; kon [3]: 119000 M⁻¹ s⁻¹; Kd [4]: 43.6 nM; Response [4]: 0.27 nm; koff [4]: 0.0127 s⁻¹; kon [4]: 291000 M⁻¹ s⁻¹; Pseudovirus Neturalization [1]: > 50 µg/mL; Pseudovirus Neturalization [2]: 0.266 µg/mL; Neutralization (Infectious virus; (µg/mL)) [5]: 2.46 µg/mL; OD 450 nm [6]: 2.74 OD

With CB-6 (AB-009264) (antibody) as the substance, how does the Kd [3] read?
The Kd was 4.77 nM.

What about the Response [3] of the same substance?
The Response was 0.58 nm.

What about the koff [3] of the same substance?
Its koff is 0.000844 s⁻¹.

And the kon [3]?
Its kon is 177000 M⁻¹ s⁻¹.

What about the Kd [4] of the same substance?
Its Kd is 27.7 nM.

And the Response [4]?
Its Response is 0.361 nm.

And the koff [4]?
Its koff is 0.0107 s⁻¹.

What about the kon [4] of the same substance?
Its kon is 386000 M⁻¹ s⁻¹.

And the Pseudovirus Neturalization [1]?
Its Pseudovirus Neturalization is greater than 50 µg/mL.

What about the Pseudovirus Neturalization [2] of the same substance?
Its Pseudovirus Neturalization is 0.012 µg/mL.

And the Neutralization (Infectious virus; (µg/mL)) [5]?
Its Neutralization (Infectious virus; (µg/mL)) is 0.13 µg/mL.

And the OD 450 nm [6]?
The OD 450 nm was 2.81 OD.

What does the source list for COVA1-21 (AB-010159) (antibody)?
Pseudovirus Neturalization [1]: > 50 µg/mL; Pseudovirus Neturalization [2]: 21 µg/mL

Which Pseudovirus Neturalization [1] does the source give for CR3022 (AB-009073) (antibody) here?
Its Pseudovirus Neturalization is 2.61 µg/mL.

And the Pseudovirus Neturalization [2]?
The Pseudovirus Neturalization was greater than 50 µg/mL.

And the Neutralization (Infectious virus; (µg/mL)) [5]?
Its Neutralization (Infectious virus; (µg/mL)) is greater than 50 µg/mL.

What about the response as ligand (RU) [7] of the same substance?
Its response as ligand (RU) is less than 20 RU.

Which Pseudovirus Neturalization [1] does the source give for “LY-CoV555 | Bamlanivimab (AB-010160) (antibody)” here?
The Pseudovirus Neturalization was greater than 50 µg/mL.

Which Pseudovirus Neturalization [1] does the source give for “REGN10933 | Casirivimab (AB-010156) (antibody)” here?
The Pseudovirus Neturalization was greater than 50 µg/mL.

“REGN10987 | Imdevimab (AB-010157) (antibody)” was tested. Which Pseudovirus Neturalization [1] did it give?
The Pseudovirus Neturalization was greater than 50 µg/mL.
